The subject of series [1] is T1, Compound 1s, Ac-Ile-Ile-PyA-pNF-Asn-Thr-Pro-Glu-His-Val-Val-Pro-Tyr-Gly-Leu-Gly-Ser-COOH.
T1 sequence: IIXXNTPEHVVPYGLGS

Series [2] deals with T2, Compound 2s, Ac-Arg-Pro-Lys-Pro-Gln-Gln-PyA-pNF-Gly-Leu-Met-NH2.
T2 sequence: RPKPQQXXGLM

Series [3] relates to T3, peptide 3s, Ac-Ser-Gly-PyA-Lys-Ala-Phe-Ala-pNF-Gly-Lys NH2.
T3 sequence: SGXKAFAXGK

Series [4] addresses T4, Compound 1s, Ac-Ile-Ile-PyA-pNF-Asn-Thr-Pro-Glu-His-Val-Val-Pro-Tyr-Gly-Leu-Gly-Ser-COOH.
T4 chain: IIXXNTPEHVVPYGLGS

The target of series [5] is T5, peptide 3s, Ac-Ser-Gly-PyA-Lys-Ala-Phe-Ala-pNF-Gly-Lys NH2.
T5 chain: SGXKAFAXGK

For the molecule angiotensin-converting enzyme (ACE), the “cleavage by HPLC after 2 h at 37° C.” value in series [1], in series [2] and in series [3] was “no cleavage is observed by HPLC after incubation for 2 h at 37 °C” each time.

On to neprilysin (NEP), for which the “cleavage by HPLC after 2 h at 37° C.” value in series [1], in series [2] and in series [3] was “no cleavage is observed by HPLC after incubation for 2 h at 37 °C” each time.

B1: endothelin-converting enzyme (ECE) (protein)
chain: MMSTYKRATLDEEDLVDSLSEGDAYPNGLQVNFHSPRSGQRCWAARTQVEKRLVVLVVLLAAGLVACLAALGIQYQTRSPSVCLSEACVSVTSSILSSMDPTVDPCHDFFSYACGGWIKANPVPDGHSRWGTFSNLWEHNQAIIKHLLENSTASVSEAERKAQVYYRACMNETRIEELRAKPLMELIERLGGWNITGPWAKDNFQDTLQVVTAHYRTSPFFSVYVSADSKNSNSNVIQVDQSGLGLPSRDYYLNKTENEKVLTGYLNYMVQLGKLLGGGDEEAIRPQMQQILDFETALANITIPQEKRRDEELIYHKVTAAELQTLAPAINWLPFLNTIFYPVEINESEPIVVYDKEYLEQISTLINTTDRCLLNNYMIWNLVRKTSSFLDQRFQDADEKFMEVMYGTKKTCLPRWKFCVSDTENNLGFALGPMFVKATFAEDSKSIATEIILEIKKAFEESLSTLKWMDEETRKSAKEKADAIYNMIGYPNFIMDPKELDKVFNDYTAVPDLYFENAMRFFNFSWRVTADQLRKAPNRDQWSMTPPMVNAYYSPTKNEIVFPAGILQAPFYTRSSPKALNFGGIGVVVGHELTHAFDDQGREYDKDGNLRPWWKNSSVEAFKRQTECMVEQYSNYSVNGEPVNGRHTLGENIADNGGLKAAYRAYQNWVKKNGAEHSLPTLGLTNNQLFFLGFAQVWCSVRTPESSHEGLITDPHSPSRFRVIGSLSNSKEFSEHFRCPPGSPMNPPHKCEVW
With B1, in series [4], the “Km (fluorimetric cleavage assay, ENZFITTER)” value is recorded as 1s, Km=22.1±0.9 µM and the “cleavage products by HPLC” value was “In all cases, a single cleavage site at the L.PyA-Lp.NF dipeptide was observed, generating only two metabolites”. The “cleavage products by HPLC” value in series [5] is listed as “produce only two metabolites, as shown by analysis of the reaction by HPLC, corresponding to the single cleavage at the PyA-pNF peptide bond”.
